Here are results for 7 molecules from patent publication US20250327097A1, “ORGANISMS PRODUCING LESS CROTONIC ACID” (Global Bioenergies, priority 2021, published 2025).

The labels stand for the following.
B1: I283T-N285P-N287T-Q290E-S322T-N388M-K394R-C430A-i430aG-L432F-L434W-S436N-V451S-dG462 (protein)
chain: MFLKSLREQINLLKRQGDLRIINRPVDSYLEAAAIIRRSTETKAPVPLMTNIKGYPGCSIVGGLAALSSNPEYPLSRVAMSLGLSTTASAQSIVQYLIDGLKKTPYLPVEIDSNSAPCKQNILRGEDASLAHFPIPQVHQHDGNRYVNTWGVFIVESPDGQWCNWSIQRVQYLNDRQMIALVFPSQHISDIWEEWVKIGKPMPYALVQGCEPIVPYIAGLPLLERNVNEAEYIGALYGKGIEVVKCETHDLRVPASSEVVIEGYFAITREGVEGPFGEFAGYTPPETSLEPILSITAISWQDDPIWPVVAEGKPVDEYHTCTGIGDAAAIQNVLLTANLPVSFVWVPLYSACHLMIVSINRHWRQTHPDLTSEQLTKKVGDVIHQTRMSIKLPRIVVLDDDVDPADTESLLWALATRIHPERKRYFYESAIFPWLNCYSEEERHNRKGKRSIIDALLPENHGAISSFDYAYPDDIKQRVLMHWETDFSHD
B2: L222V-I283T-N285P-N287T-Q290E-S322T-N388M-K394R-C430A-i430aG-L432F-L434W-S436N-dG462 (protein)
chain: MFLKSLREQINLLKRQGDLRIINRPVDSYLEAAAIIRRSTETKAPVPLMTNIKGYPGCSIVGGLAALSSNPEYPLSRVAMSLGLSTTASAQSIVQYLIDGLKKTPYLPVEIDSNSAPCKQNILRGEDASLAHFPIPQVHQHDGNRYVNTWGVFIVESPDGQWCNWSIQRVQYLNDRQMIALVFPSQHISDIWEEWVKIGKPMPYALVQGCEPIVPYIAGLPVLERNVNEAEYIGALYGKGIEVVKCETHDLRVPASSEVVIEGYFAITREGVEGPFGEFAGYTPPETSLEPILSITAISWQDDPIWPVVAEGKPVDEYHTCTGIGDAAAIQNVLLTANLPVSFVWVPLYSACHLMIVSINRHWRQTHPDLTSEQLTKKVGDVIHQTRMSIKLPRIVVLDDDVDPADTESLLWALATRIHPERKRYFYESAIFPWLNCYSEEERHNRKGKRVIIDALLPENHGAISSFDYAYPDDIKQRVLMHWETDFSHD
B3: I283T-N285P-N287T-Q290E-S322T-I330V-N388M-S389H-K394R-C430A-i430aG-L432F-L434W-S436N-dG462 (protein)
chain: MFLKSLREQINLLKRQGDLRIINRPVDSYLEAAAIIRRSTETKAPVPLMTNIKGYPGCSIVGGLAALSSNPEYPLSRVAMSLGLSTTASAQSIVQYLIDGLKKTPYLPVEIDSNSAPCKQNILRGEDASLAHFPIPQVHQHDGNRYVNTWGVFIVESPDGQWCNWSIQRVQYLNDRQMIALVFPSQHISDIWEEWVKIGKPMPYALVQGCEPIVPYIAGLPLLERNVNEAEYIGALYGKGIEVVKCETHDLRVPASSEVVIEGYFAITREGVEGPFGEFAGYTPPETSLEPILSITAISWQDDPIWPVVAEGKPVDEYHTCTGIGDAAAVQNVLLTANLPVSFVWVPLYSACHLMIVSINRHWRQTHPDLTSEQLTKKVGDVIHQTRMHIKLPRIVVLDDDVDPADTESLLWALATRIHPERKRYFYESAIFPWLNCYSEEERHNRKGKRVIIDALLPENHGAISSFDYAYPDDIKQRVLMHWETDFSHD
B4: I283T-N285P-N287T-Q290E-S322T-N388M-S389H-K394R-C430A-i430aG-L432F-L434W-S436N-dG462 (protein)
chain: MFLKSLREQINLLKRQGDLRIINRPVDSYLEAAAIIRRSTETKAPVPLMTNIKGYPGCSIVGGLAALSSNPEYPLSRVAMSLGLSTTASAQSIVQYLIDGLKKTPYLPVEIDSNSAPCKQNILRGEDASLAHFPIPQVHQHDGNRYVNTWGVFIVESPDGQWCNWSIQRVQYLNDRQMIALVFPSQHISDIWEEWVKIGKPMPYALVQGCEPIVPYIAGLPLLERNVNEAEYIGALYGKGIEVVKCETHDLRVPASSEVVIEGYFAITREGVEGPFGEFAGYTPPETSLEPILSITAISWQDDPIWPVVAEGKPVDEYHTCTGIGDAAAIQNVLLTANLPVSFVWVPLYSACHLMIVSINRHWRQTHPDLTSEQLTKKVGDVIHQTRMHIKLPRIVVLDDDVDPADTESLLWALATRIHPERKRYFYESAIFPWLNCYSEEERHNRKGKRVIIDALLPENHGAISSFDYAYPDDIKQRVLMHWETDFSHD
B5: H141C-I283T-N285P-N287T-Q290E-S322T-N388M-K394R-C430A-i430aG-L432F-L434W-S436N-dG462 (protein)
chain: MFLKSLREQINLLKRQGDLRIINRPVDSYLEAAAIIRRSTETKAPVPLMTNIKGYPGCSIVGGLAALSSNPEYPLSRVAMSLGLSTTASAQSIVQYLIDGLKKTPYLPVEIDSNSAPCKQNILRGEDASLAHFPIPQVHQCDGNRYVNTWGVFIVESPDGQWCNWSIQRVQYLNDRQMIALVFPSQHISDIWEEWVKIGKPMPYALVQGCEPIVPYIAGLPLLERNVNEAEYIGALYGKGIEVVKCETHDLRVPASSEVVIEGYFAITREGVEGPFGEFAGYTPPETSLEPILSITAISWQDDPIWPVVAEGKPVDEYHTCTGIGDAAAIQNVLLTANLPVSFVWVPLYSACHLMIVSINRHWRQTHPDLTSEQLTKKVGDVIHQTRMSIKLPRIVVLDDDVDPADTESLLWALATRIHPERKRYFYESAIFPWLNCYSEEERHNRKGKRVIIDALLPENHGAISSFDYAYPDDIKQRVLMHWETDFSHD
B6: I283T-N285P-N287T-Q290E-S322T-I330V-N388M-K394R-C430A-i430aG-L432F-L434W-S436N-dG462 (protein)
chain: MFLKSLREQINLLKRQGDLRIINRPVDSYLEAAAIIRRSTETKAPVPLMTNIKGYPGCSIVGGLAALSSNPEYPLSRVAMSLGLSTTASAQSIVQYLIDGLKKTPYLPVEIDSNSAPCKQNILRGEDASLAHFPIPQVHQHDGNRYVNTWGVFIVESPDGQWCNWSIQRVQYLNDRQMIALVFPSQHISDIWEEWVKIGKPMPYALVQGCEPIVPYIAGLPLLERNVNEAEYIGALYGKGIEVVKCETHDLRVPASSEVVIEGYFAITREGVEGPFGEFAGYTPPETSLEPILSITAISWQDDPIWPVVAEGKPVDEYHTCTGIGDAAAVQNVLLTANLPVSFVWVPLYSACHLMIVSINRHWRQTHPDLTSEQLTKKVGDVIHQTRMSIKLPRIVVLDDDVDPADTESLLWALATRIHPERKRYFYESAIFPWLNCYSEEERHNRKGKRVIIDALLPENHGAISSFDYAYPDDIKQRVLMHWETDFSHD
B7: H141C-I283T-N285P-N287T-Q290E-S322T-N388M-S389H-K394R-C430A-i430aG-L432F-L434W-S436N-dG462 (protein)
chain: MFLKSLREQINLLKRQGDLRIINRPVDSYLEAAAIIRRSTETKAPVPLMTNIKGYPGCSIVGGLAALSSNPEYPLSRVAMSLGLSTTASAQSIVQYLIDGLKKTPYLPVEIDSNSAPCKQNILRGEDASLAHFPIPQVHQCDGNRYVNTWGVFIVESPDGQWCNWSIQRVQYLNDRQMIALVFPSQHISDIWEEWVKIGKPMPYALVQGCEPIVPYIAGLPLLERNVNEAEYIGALYGKGIEVVKCETHDLRVPASSEVVIEGYFAITREGVEGPFGEFAGYTPPETSLEPILSITAISWQDDPIWPVVAEGKPVDEYHTCTGIGDAAAIQNVLLTANLPVSFVWVPLYSACHLMIVSINRHWRQTHPDLTSEQLTKKVGDVIHQTRMHIKLPRIVVLDDDVDPADTESLLWALATRIHPERKRYFYESAIFPWLNCYSEEERHNRKGKRVIIDALLPENHGAISSFDYAYPDDIKQRVLMHWETDFSHD

The assay concerns 3-methylcrotonic acid. Type of assay: biochemical, Yersinia frederiksenii. Set-up: key: “+” representing a low increase in activity; “++++” representing a high increase in activity.
Regarding B1, the “Activity relative to WT” value is on record as “++++”.

In the case of B2, the “Activity relative to WT” value is “++++”.

For the molecule B3, the “Activity relative to WT” value was “++++”.

Regarding B4, the “Activity relative to WT” value is listed as “++++”.

On to B5, for which the “Activity relative to WT” value is given as “++++”.

With B6, the “Activity relative to WT” value is given as “++++”.

B7: the “Activity relative to WT” value is “++++”.
